# In patent US20100056392A1, “MICROSTRUCTURE AND MICRODOMAIN MICROARRAYS, METHODS OF MAKING SAME AND USES THEREOF” (priority 2005, published 2010):
# {AminoPEG9} = amino group attached through a PEG9 spacer, used for covalent surface attachment
# B1: Consensus DNA: covalently bound DNA containing three repeats of the consensus sequence for the transcription factor AP-1 (c-JUN), hybridized to Texas Red complement (nucleic acid)
# DNA: CGCTTGATGAGTCAGCCGGAACGCTTGATGAGTCAGCCGGAACGCTTGATGAGTCAGCCGGAAGCTTCCGGTAAATTT
# modifications: DNA, 5' {AminoPEG9}, backbone not given here; further chemistry not fully specified
# Assays:
# [1] = molecular target: T1, transcription factor GAL80 (Saccharomyces cerevisiae, UniProt P04387); details: template peptide of the array; cited from earlier work
# T1 sequence (P04387 1-435): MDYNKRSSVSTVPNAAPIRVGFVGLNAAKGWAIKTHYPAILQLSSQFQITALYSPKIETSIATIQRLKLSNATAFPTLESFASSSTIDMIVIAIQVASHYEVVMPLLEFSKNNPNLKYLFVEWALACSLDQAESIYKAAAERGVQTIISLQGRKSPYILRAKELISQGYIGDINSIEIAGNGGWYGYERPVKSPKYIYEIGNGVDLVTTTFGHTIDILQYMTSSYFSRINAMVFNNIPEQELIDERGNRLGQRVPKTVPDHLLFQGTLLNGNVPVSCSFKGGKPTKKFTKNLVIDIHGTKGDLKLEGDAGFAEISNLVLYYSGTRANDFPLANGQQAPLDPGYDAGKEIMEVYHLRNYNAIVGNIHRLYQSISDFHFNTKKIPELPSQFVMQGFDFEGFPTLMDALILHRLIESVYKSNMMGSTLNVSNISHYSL
# [2] = molecular target: T2, transcription factor AP-1 (c-JUN) (Homo sapiens, UniProt P05412); assay: rhAP1 binding to DNA grafted polymer microstructures, in situ trypsin digest and MALDI-MS peptide mass fingerprinting; details: rhAP1 0.3 ug/ml 1:1 with buffer Z, 0.5 hrs at RT and 2 hrs at 4 C; identified by MALDI-MS, not in control
# T2 construct: purchased Promega Corp (Madison, Wis.)
# T2 sequence (P05412 whole entry): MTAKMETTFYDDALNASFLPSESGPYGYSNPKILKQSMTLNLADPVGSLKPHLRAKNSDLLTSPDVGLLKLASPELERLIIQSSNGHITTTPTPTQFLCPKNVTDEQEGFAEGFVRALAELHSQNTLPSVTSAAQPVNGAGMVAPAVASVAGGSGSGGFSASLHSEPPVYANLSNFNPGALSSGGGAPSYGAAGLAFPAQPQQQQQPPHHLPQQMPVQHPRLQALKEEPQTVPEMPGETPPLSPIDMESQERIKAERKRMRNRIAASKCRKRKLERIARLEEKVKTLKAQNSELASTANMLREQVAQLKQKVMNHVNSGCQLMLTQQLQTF
# Experimental: This array was then washed with sterile water and a 1:1 mixture of rhAP1 protein 0.3 μg/ml and buffer Z (25 mM HEPES K+ pH 7.8, 12.5 mM MgCl2, 1 μM DTT, 20% glycerol, 0.1 Nonidet p40) and 2 μL was spotted onto all 5 microstructures. This was allowed to bind for 0.5 hrs at RT and 2 hrs at 4 C and then rinsed with sterile water at 4° C. The fluorescence was rechecked and the treatment spots were still fluorescent. 2 μL of a 1:100 dilution of 10 μg/mL trypsin in 25 mM ammonium carbonate and sterile water was spotted onto one feature and the array was left at 37° C. overnight.
# A slightly subsaturated solution of α-cyano-4-hydroxycinnamic acid solution of 1:2 acetonitrile:water with 1% TFA was spotted, 2 μL per feature on to the array and left in hybridization chamber for 45 min. This was then dried and spotted with 1 μL of a saturated solution of α-cyano-4-hydroxycinnamic acid in 1:1 acetonitile:water with 0.1% TFA. […] Ions were only detected coming from the trypsin digest array element.
# This array was then washed with sterile water and a 1:1 mixture of rhAP1 protein 0.3 ug/ml and buffer Z (25 mM HEPES K+ pH 7.8, 12.5 mM MgCl2, 1 uM DTT, 20% glycerol, 0.1 Nonidet p40) and 2 uL was spotted onto all 5 microstructures. […] The fluorescence was rechecked and the treatment spots were still fluorescent. […]
Molecule,binding to transcription factor GAL80 [1],binding of transcription factor AP-1 to immobilized consensus DNA [2]
"EGEWTEGKLSLR [template for 8,000 array variants substituted at positions 1, 3, 6]",known to bind,–
B1,–,bind the transcription factor AP-1
